In data set [1] the target is Sulfolobus solfataricus SsoPox variant W263F (of SEQ ID NO: 3) (Saccharolobus solfataricus, UniProt Q97VT7, W263F).
Data set [2] has as its target Sulfolobus solfataricus SsoPox variant W263T, SEQ ID NO: 19 (Saccharolobus solfataricus, UniProt Q97VT7, W263T).
In data set [3] the target is T1, Sulfolobus solfataricus SsoPox, wild type (wt), SEQ ID NO: 3 (Saccharolobus solfataricus, UniProt Q97VT7).
Data set [4] deals with Sulfolobus solfataricus SsoPox variant W263I, SEQ ID NO: 15 (Saccharolobus solfataricus, UniProt Q97VT7, W263I).
The target of data set [5] is T2, Sulfolobus solfataricus SsoPox variant W263L, SEQ ID NO: 11 (Saccharolobus solfataricus, UniProt Q97VT7, W263L).
T2 construct: made in house; host or cells: E. coli BL21(DE3)-pGro7/GroEL
Format: biochemical.

In data set [6] the target is Sulfolobus solfataricus SsoPox variant W263V, SEQ ID NO: 17 (Saccharolobus solfataricus, UniProt Q97VT7, W263V).
For data set [7], the target named is T3, Sulfolobus solfataricus SsoPox variant W263M, SEQ ID NO: 9 (Saccharolobus solfataricus, UniProt Q97VT7, W263M).
T3 construct: made in house; host or cells: E. coli BL21(DE3)-pGro7/GroEL
Format: biochemical.

The target in data set [8] is T2, Sulfolobus solfataricus SsoPox variant W263L, SEQ ID NO: 11. Format: biochemical. This is another data set of the same source.
Data set [9] addresses T1, Sulfolobus solfataricus SsoPox, wild type (wt), SEQ ID NO: 3. Details: made in house; host or cells: E. coli BL21(DE3)-pGro7/GroEL. Conditions: pH 8; cited from earlier work.
Data set [10] concerns the target T4, Sulfolobus solfataricus SsoPox variant αsA1 (C258L/I261F/W263A), SEQ ID NO: 21 (Saccharolobus solfataricus, UniProt Q97VT7, C258L/I261F/W263A).
T4 construct: made in house; host or cells: E. coli BL21(DE3)-pGro7/GroEL
T4 sequence (Q97VT7 1-314 C258L/I261F/W263A): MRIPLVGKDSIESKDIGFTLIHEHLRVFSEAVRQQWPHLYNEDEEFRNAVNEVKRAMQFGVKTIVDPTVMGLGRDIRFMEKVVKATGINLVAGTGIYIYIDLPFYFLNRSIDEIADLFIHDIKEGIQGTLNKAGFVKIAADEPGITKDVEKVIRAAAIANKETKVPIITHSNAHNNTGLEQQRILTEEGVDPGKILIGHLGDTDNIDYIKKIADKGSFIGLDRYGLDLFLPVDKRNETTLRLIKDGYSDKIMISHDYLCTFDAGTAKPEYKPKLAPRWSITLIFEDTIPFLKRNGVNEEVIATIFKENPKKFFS
Type of data set: biochemical. The conditions noted are these: for Catalytic activity: pH 8.

In data set [11] the test system is CCCCCCCC(=O)CC(=O)N[C@H]1CCOC1=O. Kind of data set: purified protein, by the assay type. Conditions: pH 8.3; 25.0 °C.
Data set [12] relates to CCCCCCCCCC(=O)CC(=O)N[C@H]1CCOC1=O. Kind of data set: purified protein, by the assay type. The conditions noted are these: pH 8.3; 25.0 °C.
For data set [13], the system named is CCCCCCC1CCCC(=O)O1. Kind of data set: purified protein, by the assay type. The conditions noted are these: pH 8.3; 25.0 °C.
The format of data set [14] is physicochemical. The conditions noted are these: pH 8.

The values that follow come from patent US10072252B2 (priority 2013, dated 2018).

Values joined by “and” are separate entries in the source; they are usually repeats but may differ in a detail not shown here. Equal values may be shown once.

With `CCCCCCC1CCCC(=O)O1` (stereo not shown) [Undecanoic-δ-lactone, undecanoic-δ-lactone], the Enhancement/wt in [1] was 6.3 ± 2.7; in [2], 9.1 ± 3.5; in [3], 1; in [4], >73.8 ± 17.2; in data set [5], 3.3 ± 1.2; in [6], 10.1 ± 3.6. The Enhancement/wt in data set [7] is 5.6 ± 2.0. For the same molecule, the kcat/KM in data set [3] was 6.72(±2.54)×10^4 M^−1s^−1; in [4] (pH 8.3), >5.80(±0.74) × 10^6 M^−1s^−1. Further, the “times better substrate / higher catalytic efficiency” value in data set [3] came to 10 times. Besides, in [4] (pH 8.3), the kcat (usually the maximal rate divided by the concentration of active sites) was “(5.80 ± 0.74) × 10^1 s^−1”.
With `COP(=O)(OC)Oc1ccc([N+](=O)[O-])cc1` [Methyl-paraoxon, methyl-paraoxon], in [8], the “catalytic efficiency improvement induced by SDS” value was 5.3 times; the kcat/KM is 3.16(±0.10) × 10^4 M^−1s^−1 and 1.69(±0.04) × 10^5 M^−1s^−1. Also, the Catalytic activity in [9] is 1.27(±0.7) · 10^3 M^−1s^−1. For the same molecule, the Catalytic activity in data set [10] is 2.29(±1.09) · 10^4 M^−1s^−1.
As to `CCOC(=O)CC(SP(=S)(OC)OC)C(=O)OCC` (stereo not shown) [Malathion, malathion], the Catalytic activity in [9] was 5.56 ± 1.26 M⁻¹ s⁻¹; in data set [10] it was 3.2 ± 0.7 M⁻¹ s⁻¹.
With “Sulfolobus solfataricus SsoPox variant W263I, SEQ ID NO: 15 (Saccharolobus solfataricus P2; W263I)”, in data set [11], the Km (in general, the substrate concentration at which the rate is half of its maximum) was 1605 ± 443 µM; the kcat was 0.6 ± 0.09 s⁻¹; the kcat/Km (commonly the turnover number divided by the Michaelis constant) is 374 ± 117 M⁻¹ s⁻¹. Also, in data set [12], the Michaelis constant (Km) was 17.8 ± 4.87 µM and 17.8 ± 4.9 µM; the catalytic constant (kcat) was 2.89 s⁻¹ and 2.89 ± 0.08 s⁻¹.
Consider “Sulfolobus solfataricus SsoPox variant W263A, SEQ ID NO: 13 (Saccharolobus solfataricus P2; W263A)”, for which the Michaelis constant (Km) in data set [12] is 1640 ± 170 µM.
Consider `CCCCCCCC(=O)CC(=O)N[C@H]1CCOC1=O` [3-oxo-C10 AHL], for which the Enhancement/wt is 4.4(±1.0) × 10^−1 in data set [1], 1 in data set [3], 0 in [5] and 0 in data set [7]. In data set [3], the kcat/KM is recorded as 3.16(±0.40)×10^4 M^−1s^−1. For the same molecule, in data set [3], the “times better substrate / higher catalytic efficiency” value is 10 times.
Regarding `CCCCCCCC1CCC(=O)O1` (stereo not shown) [Undecanoic-γ-lactone, undecanoic-γ-lactone], the Enhancement/wt in data set [1] is reported as 5.3 ± 1.8; in [2], 147.9 ± 53.5; in [3] it was 1; in data set [4], 2.3 ± 0.5; in data set [5], 4.4 ± 1.1; in [6], 1.4 ± 0.4. Besides, in data set [7], the Enhancement/wt is reported as 5.4 ± 1.3. In addition, the kcat/KM in data set [3] is 2.36 (±0.38)×10^3 M^−1s^−1.
“Sulfolobus solfataricus SsoPox, wild type (wt), SEQ ID NO: 3 (Saccharolobus solfataricus P2)”: the Michaelis constant (Km) in [11] is 143 ± 15 µM; in data set [12], 335 ± 10.4 µM and 456 ± 128 µM; in data set [13], 94 ± 18 µM. The kcat in data set [11] came to 4.52 ± 0.1 s⁻¹; in data set [13], 7.38 ± 0.28 s⁻¹. In addition, the catalytic efficiency (kcat/Km) in data set [11] was 31600 ± 4000 M⁻¹ s⁻¹; in [13] it was 78600 ± 15300 M⁻¹ s⁻¹.
`CCOP(=S)(OCC)Oc1ccc([N+](=O)[O-])cc1` [Ethyl-Parathion, ethyl-parathion]: the “Catalytic activity (very low hydrolysis)” value in data set [10] is on record as “VLH”.
With “Sulfolobus solfataricus SsoPox variant W263F (of SEQ ID NO: 3) (Saccharolobus solfataricus P2; W263F)”, in [11], the Km was 288 ± 56 µM, the turnover number (kcat) worked out at 3.96 ± 0.18 s⁻¹ and the kcat/Km was found to be 13800 ± 2800 M⁻¹ s⁻¹. Besides, in data set [12], the Michaelis-Menten constant (Km) stood at 146 ± 33 µM, the catalytic constant (kcat) is 0.66 ± 0.03 s⁻¹ and the kcat/Km is 4520 ± 1040 M⁻¹ s⁻¹. Moreover, in [13], the Km amounted to 135.2 ± 52.8 µM, the turnover number (kcat) came out at 66.5 ± 3.2 s⁻¹ and the kcat/Km came out at 492000 ± 193000 M⁻¹ s⁻¹.
Consider “Sulfolobus solfataricus SsoPox variant W263V, SEQ ID NO: 17 (Saccharolobus solfataricus P2; W263V)”, for which, in data set [11], the Michaelis constant (Km) is 1346 ± 298 µM, the turnover number (kcat) is 0.19 ± 0.009 s⁻¹ and the specificity constant (kcat/Km) came out at 141 ± 32 M⁻¹ s⁻¹. Besides, in [12], the Michaelis constant (Km) is 24.7 ± 5.2 µM, the kcat is 4.82 ± 0.11 s⁻¹ and the specificity constant (kcat/Km) is 195000 ± 44000 M⁻¹ s⁻¹.
For “Sulfolobus solfataricus SsoPox variant W263T, SEQ ID NO: 19 (Saccharolobus solfataricus P2; W263T)”, in data set [11], the Km came to 1000 ± 343 µM, the catalytic constant (kcat) came to 0.107 ± 0.016 s⁻¹ and the kcat/Km was 106 ± 40 M⁻¹ s⁻¹. For the same molecule, in data set [12], the Michaelis constant (Km) was 137 ± 19 µM, the turnover number (kcat) is 10.4 ± 0.35 s⁻¹ and the catalytic efficiency (kcat/Km) was determined as 75600 ± 10800 M⁻¹ s⁻¹.

B1: SsoPox wt: wild-type hyperthermophilic PTE of Sulfolobus solfataricus, sequence SEQ ID NO: 3 (protein, listed as Sulfolobus solfataricus)
chain: MRIPLVGKDSIESKDIGFTLIHEHLRVFSEAVRQQWPHLYNEDEEFRNAVNEVKRAMQFGVKTIVDPTVMGLGRDIRFMEKVVKATGINLVAGTGIYIYIDLPFYFLNRSIDEIADLFIHDIKEGIQGTLNKAGFVKIAADEPGITKDVEKVIRAAAIANKETKVPIITHSNAHNNTGLEQQRILTEEGVDPGKILIGHLGDTDNIDYIKKIADKGSFIGLDRYGLDLFLPVDKRNETTLRLIKDGYSDKIMISHDYCCTIDWGTAKPEYKPKLAPRWSITLIFEDTIPFLKRNGVNEEVIATIFKENPKKFFS
On to B1, for which the melting temperature in data set [14] is 104 °C.

B2: SsoPox W263L: SEQ ID NO: 3 with substitution of tryptophan W in position 263 by leucine L (protein, listed as Sulfolobus solfataricus)
chain: MRIPLVGKDSIESKDIGFTLIHEHLRVFSEAVRQQWPHLYNEDEEFRNAVNEVKRAMQFGVKTIVDPTVMGLGRDIRFMEKVVKATGINLVAGTGIYIYIDLPFYFLNRSIDEIADLFIHDIKEGIQGTLNKAGFVKIAADEPGITKDVEKVIRAAAIANKETKVPIITHSNAHNNTGLEQQRILTEEGVDPGKILIGHLGDTDNIDYIKKIADKGSFIGLDRYGLDLFLPVDKRNETTLRLIKDGYSDKIMISHDYCCTIDLGTAKPEYKPKLAPRWSITLIFEDTIPFLKRNGVNEEVIATIFKENPKKFFS
B2 showed a melting temperature in data set [14] of 92.0±2.1 °C.

B3: SsoPox W263F: SsoPox (SEQ ID NO: 3) with W263F variation (protein, listed as Sulfolobus solfataricus)
chain: MRIPLVGKDSIESKDIGFTLIHEHLRVFSEAVRQQWPHLYNEDEEFRNAVNEVKRAMQFGVKTIVDPTVMGLGRDIRFMEKVVKATGINLVAGTGIYIYIDLPFYFLNRSIDEIADLFIHDIKEGIQGTLNKAGFVKIAADEPGITKDVEKVIRAAAIANKETKVPIITHSNAHNNTGLEQQRILTEEGVDPGKILIGHLGDTDNIDYIKKIADKGSFIGLDRYGLDLFLPVDKRNETTLRLIKDGYSDKIMISHDYCCTIDFGTAKPEYKPKLAPRWSITLIFEDTIPFLKRNGVNEEVIATIFKENPKKFFS
In the case of B3, the melting temperature in data set [14] was found to be 91.8±1.7 °C.

B4: SsoPox W263M: SEQ ID NO: 3 with substitution of tryptophan W in position 263 by methionine M (protein, listed as Sulfolobus solfataricus)
chain: MRIPLVGKDSIESKDIGFTLIHEHLRVFSEAVRQQWPHLYNEDEEFRNAVNEVKRAMQFGVKTIVDPTVMGLGRDIRFMEKVVKATGINLVAGTGIYIYIDLPFYFLNRSIDEIADLFIHDIKEGIQGTLNKAGFVKIAADEPGITKDVEKVIRAAAIANKETKVPIITHSNAHNNTGLEQQRILTEEGVDPGKILIGHLGDTDNIDYIKKIADKGSFIGLDRYGLDLFLPVDKRNETTLRLIKDGYSDKIMISHDYCCTIDMGTAKPEYKPKLAPRWSITLIFEDTIPFLKRNGVNEEVIATIFKENPKKFFS
For B4, in data set [14], the melting temperature came to 85.3±0.9 °C.
